In the nanobody polyreactivity screen of Harvey et al. (2022):

Assay: yeast display, Sf9 membrane polyspecificity reagent, FACS + sequencing; frameworks hold sequencing errors
In short: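 A synthetic nanobody library was expressed on Saccharomyces cerevisiae BJ5465 by galactose induction for 36–48 hours. The library was stained for 1 hour at 4 °C with 10% biotinylated, detergent-solubilized Sf9 membrane reagent and enriched with streptavidin microbeads before FACS. Low and high (top ~1%) gates were set on anti-HA fluorescence for expression and streptavidin fluorescence for reagent binding, and each polyreactivity label reflects the gate of origin.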

Sequence	polyreactivity (PSR sort gate)
QVQLVESGGGLVQAGGSLRFSCAASGRIFPAYAMGWYRQAPGKEREWVDAISRRGGSTYYADTVKGRFTISRDNAKNTVYLQMNSLNPEDTAVYYCAKEVWDSLGYPHSGDYWGQGTQVTVSS	low polyreactivity
QVQLVESGGGLVQAGGSLRFSCAASGRIFWYYVMGWDRQAPGKEREFVASISSGGSTYYADSVKGRFTISRDNANNTVYLQMNSLKPEDTAVYYCNAYVYGQRVWYDYWGQGTQVTVSS	high polyreactivity
QVQLVESGGGLVQAGGSLRFSCAASGRTFQYYTMGWSRQAPGKEREFVAAIRDSGGSTYYADSVKGRFTISRDNAKNTVYLQMNSLKPEDTAVYYCAAYRPRKYDYWGQGTQVTVSS	high polyreactivity
QVQLVESGGGLVQAGGSLRFSCAASGRTFYPYAMGWYRQAPGKERELVAAINGGGRTYYADSVKGRFTISRDNAKNTVYLQMNSLKPEDTAVYYCATRYPAWRYDYNYWGQGTQVSVSS	high polyreactivity
QVQLVESGGGLVQAGGSLRFSCAASGSIFITYAMGWSRQAPGKERELVAAIRDSGDRTYYADSVKGRFTISRDNAKNTVYLQMNSLKPEDTAVYYCNARWQEPLKYDYWGQGTQVTVSS	low polyreactivity
QVQLVESGGGLVQAGGSLRFSCAASGSIFSVYAMGWYRQAPGKEREWVAAITSGTYTYADSVKGRFTISRDNAKNSVYLQMNSLKAEDTAVYYCAAESGSPGYYYWGQGTQVTVST	low polyreactivity
QVQLVESGGGLVQAGGSLRFSCAASGSIFYGYTMGWYRQAPGKERELVAGISTYYADSVKGRFTISRDTAKNTVYLQMNSLKPEDTAVYYCAADYSSPTSEYDYWGQGTQVTVSS	low polyreactivity
QVQLVESGGGLVQAGGSLRFSCAASGSTFFSYAMGWYRQAPGKERELVATIRGSAGRTYYADSVKGRFTISRDHANYTVYLQMNSLKPEDTAVYYCARRYWPGSAYWIYDYWGQGTQVTVSS	high polyreactivity
QVQLVESGGGLVQAGGSLRFSCAASGSTFSYYAMGWYRQAPRKEREFVAAMSWNGGSTYYADSVKGRYTISRDNAKNTVYLHMNSLKPEDTEVYYCAADFKYGYSHGFRQRLYDYWGQGTQVTVSS	low polyreactivity
QVQLVESGGGLVQAGGSLRFSCAASGSTFVYNAMGWYRQAAGQERELVAVITYRGGRTYYADSVKGRFTISRDNAKNTVYLQINSLKPEDTAVYYCAAQTFRYRKKLDYWGQGTQVTVSS	high polyreactivity
QVQLVESGGGLVQAGGSLRFSCAASGSTFYYYAMGWYRQAPGKERELVAAINTSGGITYYADSVKGRFTISRDNAKNTVYLQMNSLKPEDTAVYYCATQLWDRYGFGYWGQGTQVTVSS	high polyreactivity
QVQLVESGGGLVQAGGSLRFSCAASGTFVPYAMGWYRQAPGKEMELVARITWRGGSTYYADSVKGRFTISRDNANNTVYLQMNSLKPEETAVYYCATVSDNRYYYWGQGTQVTVSS	low polyreactivity
QVQLVESGGGLVQAGGSLRFSCADSGSIFVRYAMGWYRQAPGKERELVAAISVRGGRTYYADSVKGRFTISRDNAKNTVYLQMNSLKPEDTAVYYCAAQLYYYYTYVPPGGYWGQGTQVTVSS	high polyreactivity
QVQLVESGGGLVQAGGSLRFSCDASGRSFYINAMGWYRQAPGKERELVAAITWSGGRTYYADSVKGRFTISRDNAKNTVYLQMNSLKPEDTAVYYCNTRSYSFYVPYRYDYWGQGTHVTVSS	high polyreactivity
QVQLVESGGGLVQAGGSLRFTCAASGRTFIGYAMGWYRHAPGKERELVATISVSGGSTYYADSVKGRYTISRDNAKKTVYLHMNSLKPEDTAVYYCAKAYLRYYDGPYDYWGQGTQVTLSS	low polyreactivity
QVQLVESGGGLVQAGGSLRIICAASGRTFSYYAMGWYRQAPGKERELVAAITAGGNTYYADSVKGRFTISRDNAKNTVYLQMNSLKAEDTAVYYCAATYYWAWGGVYHSEFDYWGQGTQETVSS	low polyreactivity
QVQLVESGGGLVQAGGSLRIICAASGSTLGYNAMGWYRQAPGKERELVAAISSDGGSTYYADSVKGRFTISRDNAKNTVYLQMNSLKPEDTAVYYCAAYYYTPGYGSWGQGTQVTVSS	low polyreactivity
QVQLVESGGGLVQAGGSLRIRCAASGGIFPPNAMGWYRHPPGKERELVASISSDGSTNYADSVKGRFTISRDNAKNNVILQMNSLKPEDTAVFYCNATHEAFELDYWGQGTQVNVSS	low polyreactivity
QVQLVESGGGLVQAGGSLRIRCAASGLIFGFYAMGWYRQAPGKERELVAAINSGGITYYADSVKGRFTISRDNAKNTVYLQMNSLKPEDTAVYYCNKDSHISTAYDYWGQGTQVTVSS	low polyreactivity
QVQLVESGGGLVQAGGSLRIRCAASGRIFPYYAMGWYRQAPGKERDLVATITSGGSTYYADTVKGRFTISRDNSKNTVYLQMKSLKPEDTAVYYCAARYPSIYYYRYDFWGQGTQVTVSS	high polyreactivity
QVQLVESGGGLVQAGGSLRISCAASGFIFWIYAMGWYRQAPGKEREFVAVITYRGDTTYYADSVKGRFTISRDNAKNTVYLQMNSLKPEDTAVYYCAAYTVQKYGYWGQGTQVTVSS	low polyreactivity
